{"source": "paper PMC11938149", "binders": {"B1": {"name": "Bacillus subtilis MinC^1-224 wild type (for light scattering) (natural protein)", "chain": "MKTKKQQYVTIKGTKNGLTLHLDDACSFDELLDGLQNMLSIEQYTDGKGQKISVHVKLGNRFLYKEQEEQLTELIASKKDLFVHSIDSEVITKKEAQQIREEAEIISVSKIVRSGQVLQVKGDLLLIGDVNPGGTVRAGGNIFVLGSLKGIAHAGFNGNNQAVIAASEMLPTQLRINHVLNRSPDHIQKGNEMECAYLDTDGNMVIERLQHLAHLRPDLTRLEG"}}, "target": "T1, Bacillus subtilis FtsZ^1-382 (for light scattering) (Bacillus subtilis) (UniProt P17865)", "T1 sequence": "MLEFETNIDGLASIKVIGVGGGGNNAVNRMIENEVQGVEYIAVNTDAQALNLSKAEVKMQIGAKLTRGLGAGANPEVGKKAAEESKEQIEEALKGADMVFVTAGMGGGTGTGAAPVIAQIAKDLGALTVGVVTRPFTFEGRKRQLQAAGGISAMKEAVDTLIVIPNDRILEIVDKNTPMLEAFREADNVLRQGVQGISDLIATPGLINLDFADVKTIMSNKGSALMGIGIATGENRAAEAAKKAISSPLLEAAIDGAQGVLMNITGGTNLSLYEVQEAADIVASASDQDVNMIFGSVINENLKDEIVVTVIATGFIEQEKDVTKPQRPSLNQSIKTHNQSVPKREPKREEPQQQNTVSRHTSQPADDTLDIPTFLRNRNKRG"}
{"binder": "B1", "values": [{"measurement": "inhibition of FtsZ polymerization by light scattering (5 uM FtsZ, 15 uM MinC, HMK buffer pH 7.7, 100 mM potassium)", "result": 50, "unit": "%"}]}
